Data reported in the supplement of paper PMC10126150.
± gives the standard deviation of the averaged measurements.

test system: ATP; assay: switch fluorescence ratio, 500 uM ATP over buffer (Cy3 cluster intensity, sum of 5 cycles each) (fold (ratio)); higher = stronger signal-on switching upon ATP binding; sequences stand for … in TCGTCGGCAGCGTCAGATGTGTATAAGAGACAGTTTTTTTTTTTTTTTTTTTTTTTTT…TC; conditions: aptamer strand: ATP DNA aptamer (quencher-CACCTGGGGGAGTATTGCGGAGGAAGG + anchor), 100 nM annealed; ATP concentration: 500 uM
Method in brief: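 After annealing to 100 nM quencher-labelled ATP aptamer, Cy3-labelled switching-strand clusters on a modified Illumina MiSeq flow-cell were imaged in selection buffer. A second image followed after 15 min with 500 uM ATP at 22 °C, and five such buffer/ATP cycles were done, each separated by NaOH stripping and re-annealing. The fluorescence ratio, averaged per switch-domain sequence, is summed target-cycle over summed buffer-cycle Cy3 intensity per cluster, with clusters outside 100-1000 RFU excluded.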
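Further: ATP exposure 15 min at 22 °C before imaging.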

TTTATGATGA and TTTATGATGG are within error of each other in switch fluorescence ratio: 0.971 ± 0.016 for the first, 1.01 ± 0.052 for the second.

TTTATGATTT and TTTATGCCAG are within error of each other in switch fluorescence ratio: 1 ± 0.024 for the first, 0.946 ± 0.053 for the second.

First: TTTATGCTCC
Second: TTTATGGAAG
The switch fluorescence ratio of the first is higher: 1.086 ± 0.0031 for the first, 0.988 ± 0.013 for the second.

TTTATGGACT and TTTATGGCGG are within error of each other in switch fluorescence ratio: 1.03 ± 0.039 for the first, 1.01 ± 0.027 for the second.

TTTATGGGTA and TTTATGGTAA are within error of each other in switch fluorescence ratio: 1 ± 0.033 for the first, 0.9888 ± 0.0024 for the second.

TTTATGGTAT and TTTATGGTGT are within error of each other in switch fluorescence ratio: 0.982 ± 0.028 for the first, 1.17 ± 0.21 for the second.

TTTATGGTTG and TTTATGTGTG are within error of each other in switch fluorescence ratio: 1.02 ± 0.064 for the first, 0.999 ± 0.026 for the second.

TTTATTAAAA and TTTATTAAGT are within error of each other in switch fluorescence ratio: 0.99 ± 0.038 for the first, 1.01 ± 0.033 for the second.

TTTATTACCC and TTTATTAGAT are within error of each other in switch fluorescence ratio: 1.02 ± 0.025 for the first, 0.982 ± 0.022 for the second.

TTTATTCTCT and TTTATTGA are within error of each other in switch fluorescence ratio: 1.01 ± 0.019 for the first, 0.989 ± 0.013 for the second.

TTTATTGCGT and TTTATTGGT are the same in switch fluorescence ratio: 1.01 ± 0.048 for the first, 1.01 ± 0.018 for the second.

TTTATTGGTG and TTTATTGTTA are within error of each other in switch fluorescence ratio: 1.03 ± 0.1 for the first, 1.05 ± 0.068 for the second.

Compared with TTTATTGTTT, TTTATTTACG is higher in switch fluorescence ratio: 1 ± 0.011 for the first, 1.033 ± 0.0082 for the second.

Compared with TTTATTTCTG, TTTATTTCTT is higher in switch fluorescence ratio: 0.959 ± 0.02 for the first, 0.98163 ± 0.0001 for the second.

TTTATTTGAC and TTTCAAAATT are within error of each other in switch fluorescence ratio: 1.03 ± 0.053 for the first, 0.994 ± 0.018 for the second.

Compared with TTTCAACCTT, TTTCAACGAT is lower in switch fluorescence ratio: 1.42 ± 0.071 for the first, 1 ± 0.029 for the second.

TTTCAAGGGC and TTTCAAGTGC are within error of each other in switch fluorescence ratio: 1.04 ± 0.027 for the first, 1.03 ± 0.064 for the second.

TTTCAATCTT and TTTCAATGTC are within error of each other in switch fluorescence ratio: 1.36 ± 0.62 for the first, 0.97 ± 0.11 for the second.

TTTCACAATC and TTTCACAGTA are within error of each other in switch fluorescence ratio: 1.07 ± 0.076 for the first, 1.03 ± 0.03 for the second.

Going from TTTCACATGG to TTTCACTTGT, the switch fluorescence ratio falls from 1.052 ± 0.0044 to 1.034 ± 0.0018.

TTTCAGGCTT and TTTCAGGGGG are within error of each other in switch fluorescence ratio: 1.14 ± 0.13 for the first, 1.05 ± 0.091 for the second.

TTTCAGGGTC and TTTCAGTACA are within error of each other in switch fluorescence ratio: 1.15 ± 0.19 for the first, 0.988 ± 0.01 for the second.

TTTCAGTCGC and TTTCAGTTGT are within error of each other in switch fluorescence ratio: 0.9995 ± 0.0047 for the first, 1.01 ± 0.016 for the second.

TTTCATAGTC and TTTCATCGTA are within error of each other in switch fluorescence ratio: 1 ± 0.025 for the first, 0.99 ± 0.049 for the second.

TTTCATGGGG and TTTCATGTAT are the same in switch fluorescence ratio: 1.014 ± 0.0049 for the first, 1.01 ± 0.012 for the second.

TTTCATGTCT and TTTCATGTGG are within error of each other in switch fluorescence ratio: 0.992 ± 0.019 for the first, 0.995 ± 0.044 for the second.

TTTCATTTTT and TTTCCACCGA are within error of each other in switch fluorescence ratio: 0.999 ± 0.035 for the first, 1.14 ± 0.16 for the second.

TTTCCATCAC and TTTCCATTCT are the same in switch fluorescence ratio: 1 ± 0.042 for the first, 1 ± 0.015 for the second.

First: TTTCCCGGAT
Second: TTTCCCGGTG
The switch fluorescence ratio of the first is lower: 1.1 ± 0.14 for the first, 2.13 ± 0.039 for the second.

TTTCCCGTAT and TTTCCGAATG are within error of each other in switch fluorescence ratio: 1.07 ± 0.049 for the first, 1.13 ± 0.026 for the second.

First: TTTCCGGGGG
Second: TTTCCGTTTC
The switch fluorescence ratio of the first is lower: 0.996 ± 0.022 for the first, 1.06 ± 0.04 for the second.

TTTCCTGGGC and TTTCCTTTGA are within error of each other in switch fluorescence ratio: 1.37 ± 0.61 for the first, 1.06 ± 0.07 for the second.

TTTCGAAACT and TTTCGAACGG are within error of each other in switch fluorescence ratio: 1 ± 0.038 for the first, 1.03 ± 0.028 for the second.

TTTCGAATAA and TTTCGACTTT are within error of each other in switch fluorescence ratio: 0.986 ± 0.0099 for the first, 1 ± 0.038 for the second.

First: TTTCGAGGAA
Second: TTTCGAGTTT
The switch fluorescence ratio of the first is higher: 1.03 ± 0.019 for the first, 0.983 ± 0.012 for the second.

TTTCGATATT and TTTCGATTGT are within error of each other in switch fluorescence ratio: 0.989 ± 0.019 for the first, 0.988 ± 0.024 for the second.

Going from TTTCGCACTG to TTTCGCGGGC, the switch fluorescence ratio rises from 1.1 ± 0.018 to 1.94 ± 0.53.

TTTCGCGGTT and TTTCGCGTGG are within error of each other in switch fluorescence ratio: 1.02 ± 0.043 for the first, 0.971 ± 0.028 for the second.

TTTCGGAGA and TTTCGGATGT are within error of each other in switch fluorescence ratio: 1.11 ± 0.17 for the first, 0.984 ± 0.04 for the second.

TTTCGGATTT and TTTCGGCCAG are within error of each other in switch fluorescence ratio: 0.983 ± 0.012 for the first, 1.13 ± 0.17 for the second.

TTTCGGCTAT and TTTCGGGAAT are within error of each other in switch fluorescence ratio: 1.12 ± 0.15 for the first, 1.08 ± 0.11 for the second.

TTTCGGGCAT and TTTCGGGGGT are within error of each other in switch fluorescence ratio: 1.19 ± 0.31 for the first, 1.07 ± 0.25 for the second.

TTTCGGTATT and TTTCGGTCGG are within error of each other in switch fluorescence ratio: 1.02 ± 0.02 for the first, 1.04 ± 0.046 for the second.

TTTCGGTTGC and TTTCGTATCG are within error of each other in switch fluorescence ratio: 1.07 ± 0.11 for the first, 1.01 ± 0.021 for the second.

TTTCGTATGG and TTTCGTGAAA are within error of each other in switch fluorescence ratio: 1 ± 0.057 for the first, 0.9975 ± 0.0019 for the second.

TTTCGTGTGG and TTTCGTGTTG are the same in switch fluorescence ratio: 1.01 ± 0.086 for the first, 1.01 ± 0.017 for the second.

First: TTTCGTGTTT
Second: TTTCGTTAAC
The switch fluorescence ratio of the first is lower: 0.998 ± 0.028 for the first, 1.06 ± 0.028 for the second.

TTTCTAGACC and TTTCTAGGGG are within error of each other in switch fluorescence ratio: 1.1 ± 0.12 for the first, 1.01 ± 0.028 for the second.

TTTCTAGGTT and TTTCTAGTCG are within error of each other in switch fluorescence ratio: 1 ± 0.041 for the first, 0.971 ± 0.019 for the second.

TTTCTCATTT and TTTCTCGGCT are within error of each other in switch fluorescence ratio: 0.972 ± 0.021 for the first, 1 ± 0.035 for the second.
